Reference: doi:10.1101/2024.07.16.603692

Molecular target: CBP-UPF1-CH-HD (aa 115-914) (human) (UniProt Q92900)
Test: MST

“UPF2(770-1204) (from UniProt Q9HAU5 770-1204) (domain or fragment)” gave a Kd of 10 nM.
